Here are results for 50 sequences from the supplement of paper PMC10724198.

In this series the test system is Saccharomyces cerevisiae. The series is described as follows: protein stability index of tFT-peptide fusion (C-terminal peptide) (PSI (0-1 scale)); higher = more stable (slower turnover). The settings on record: temperature: 30 C. As for the experimental part: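 MPS profiling in S. cerevisiae of the yeast C-terminome library: the last 12 aa of each annotated ORF are fused to the C-terminus of a sfGFP-mCherry timer, after a GGGS linker. Cells are FACS-sorted into 8 mCherry/sfGFP bins and deep-sequenced. PSI runs from 0 (unstable) to 1 (stable); wild type and das1Δ backgrounds, two technical replicates each.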

The mark [1] stands for this setting: genetic background: das1 deletion.

± gives the standard deviation of the averaged measurements.

For the sequence AEIISVRQVDQS [GIT1 C-terminal 12 aa], the protein stability index reads like this: under setting [1], 0.673 ± 0.017; (genetic background: wild type) 0.705 ± 0.051.

As to AESDDKSDNYGA [PRP45 C-terminal 12 aa], the protein stability index is, setting by setting: under setting [1], 0.689 ± 0.032; (genetic background: wild type) 0.717 ± 0.036.

On to AETLLSQRSRDR [DNF2 C-terminal 12 aa], for which the protein stability index stood at 0.721 ± 0.028 under setting [1] and 0.692 ± 0.048 (genetic background: wild type).

For AGFGCLDSIILY [GSH2 C-terminal 12 aa], the protein stability index came out at 0.7068 ± 0.0036 under setting [1] and 0.732 ± 0.038 (genetic background: wild type).

Regarding AHRENIAFPPQF [YHR033W C-terminal 12 aa], the protein stability index by setting is: under setting [1], 0.739 ± 0.0092; (genetic background: wild type) 0.744 ± 0.067.

As to AIDTLLKMSSSD [SRL3 C-terminal 12 aa], the protein stability index is, setting by setting: under setting [1], 0.703 ± 0.03; (genetic background: wild type) 0.674 ± 0.051.

For the sequence AIFLFLVGLFMK [UBC6 C-terminal 12 aa], the protein stability index reads like this: under setting [1], 0.289 ± 0.011; (genetic background: wild type) 0.297 ± 0.017.

As to AKAGSTPKFRTE [YNL050C C-terminal 12 aa], the protein stability index under setting [1] was determined as 0.6897 ± 0.0035 and the protein stability index (genetic background: wild type) was found to be 0.6555 ± 0.0053.

Regarding AKDFLEKRGISK [PAM18 C-terminal 12 aa], the protein stability index under setting [1] came out at 0.711 ± 0.0047 and the protein stability index (genetic background: wild type) came out at 0.705 ± 0.023.

AKFDGHAKTCHI [YBR051W C-terminal 12 aa]: the protein stability index is, setting by setting: under setting [1], 0.717 ± 0.021; (genetic background: wild type) 0.70733 ± 5e-06.

As for AKKTNKLALTHV [SEC26 C-terminal 12 aa], the protein stability index is, setting by setting: under setting [1], 0.7167 ± 0.0064; (genetic background: wild type) 0.718 ± 0.038.

As for “ALAFSKIPSVFL [YMR153C-A C-terminal 12 aa]”, the protein stability index was determined as 0.722 ± 0.035 under setting [1] and 0.687 ± 0.0091 (genetic background: wild type).

Turning to ALDKYLIEIHHW [NPR3 C-terminal 12 aa], the protein stability index was determined as 0.718 ± 0.041 under setting [1] and 0.728 ± 0.013 (genetic background: wild type).

On to ALGRKTSNGGRI [MKS1 C-terminal 12 aa], for which the protein stability index under setting [1] came to 0.7161 ± 0.004 and the protein stability index (genetic background: wild type) worked out at 0.724 ± 0.049.

As to AMSARKLSAARK [PCH2 C-terminal 12 aa], the protein stability index by setting is: under setting [1], 0.677 ± 0.015; (genetic background: wild type) 0.666 ± 0.025.

As to ANLVYMKADVFC [HTD2 C-terminal 12 aa], the protein stability index is 0.581 ± 0.012 under setting [1] and 0.61 ± 0.066 (genetic background: wild type).

As for ANTDKNNNPPGN [SNG1 C-terminal 12 aa], the protein stability index is, setting by setting: under setting [1], 0.698 ± 0.016; (genetic background: wild type) 0.751 ± 0.07.

In turn, APHVLNDLLLKF [PGA1 C-terminal 12 aa] yielded a protein stability index under setting [1] of 0.7108 ± 0.0037 and a protein stability index (genetic background: wild type) of 0.666 ± 0.017.

For the sequence APRKEILACSDL [YOR392W C-terminal 12 aa], the protein stability index stood at 0.718 ± 0.029 under setting [1] and 0.665 ± 0.04 (genetic background: wild type).

Take AQAEVIRGLQSL [CAP2 C-terminal 12 aa]: the protein stability index by setting is: under setting [1], 0.682 ± 0.023; (genetic background: wild type) 0.672 ± 0.03.

For the sequence AQFKEYLYQNDF [HAM1 C-terminal 12 aa], the protein stability index is, setting by setting: under setting [1], 0.704 ± 0.01; (genetic background: wild type) 0.697 ± 0.022.

With AQGEKDAAATAN [TOM22 C-terminal 12 aa], the protein stability index is, setting by setting: under setting [1], 0.677 ± 0.019; (genetic background: wild type) 0.6591 ± 0.0032.

Consider ARKFWTEDNNNL [STE2 C-terminal 12 aa], for which the protein stability index came out at 0.72 ± 0.023 under setting [1] and 0.691 ± 0.039 (genetic background: wild type).

For ARLVSNEPILLD [CWC23 C-terminal 12 aa], the protein stability index is, setting by setting: under setting [1], 0.725 ± 0.026; (genetic background: wild type) 0.704 ± 0.053.

As to ARTALKRLIDDQ [MSA1 C-terminal 12 aa], the protein stability index came out at 0.692 ± 0.023 under setting [1] and 0.698 ± 0.025 (genetic background: wild type).

With ARTKRLVQFEAR [RPC10 C-terminal 12 aa], the protein stability index reads like this: under setting [1], 0.6826 ± 0.0044; (genetic background: wild type) 0.7169 ± 0.007.

ASVRIFLYPSNI [RPL33A C-terminal 12 aa]: the protein stability index by setting is: under setting [1], 0.7 ± 0.013; (genetic background: wild type) 0.697 ± 0.017.

On to ATAKEWTKKYAV [UBC5 C-terminal 12 aa], for which the protein stability index is, setting by setting: under setting [1], 0.7 ± 0.018; (genetic background: wild type) 0.729 ± 0.045.

As for ATRKALETARSA [MRPL13 C-terminal 12 aa], the protein stability index stood at 0.718 ± 0.0076 under setting [1] and 0.728 ± 0.036 (genetic background: wild type).

As for ATSITSLGVKRA [AUR1 C-terminal 12 aa], the protein stability index reads like this: under setting [1], 0.702 ± 0.01; (genetic background: wild type) 0.688 ± 0.026.

As to AVSVPRISSPMH [ICS3 C-terminal 12 aa], the protein stability index was found to be 0.7029 ± 0.0038 under setting [1] and 0.73 ± 0.028 (genetic background: wild type).

Turning to AWDIKQTLDSLA [CHO2 C-terminal 12 aa], the protein stability index runs as follows: under setting [1], 0.709 ± 0.023; (genetic background: wild type) 0.697 ± 0.038.

With AYTEVKAVRIKL [ALD6 C-terminal 12 aa], the protein stability index under setting [1] is 0.6745 ± 0.0043 and the protein stability index (genetic background: wild type) is 0.69 ± 0.02.

Consider CGVSWKSGVVKL [PXP2 C-terminal 12 aa], for which the protein stability index by setting is: under setting [1], 0.7093 ± 0.0022; (genetic background: wild type) 0.716 ± 0.031.

As to CLFGMAWLSTIL [YIP4 C-terminal 12 aa], the protein stability index was found to be 0.661 ± 0.015 under setting [1] and 0.623 ± 0.0079 (genetic background: wild type).

As to CLILSCSWWILN [YJR020W C-terminal 12 aa], the protein stability index runs as follows: under setting [1], 0.292 ± 0.0085; (genetic background: wild type) 0.1518 ± 0.00025.

In the case of CLSDIAKVLRNQ [PBP4 C-terminal 12 aa], the protein stability index under setting [1] turned out to be 0.661 ± 0.0092 and the protein stability index (genetic background: wild type) was 0.577 ± 0.015.

Regarding CPLCRSEIPFRR [RKR1 C-terminal 12 aa], the protein stability index runs as follows: under setting [1], 0.75 ± 0.028; (genetic background: wild type) 0.724 ± 0.039.

As to CRESNLKLIVSG [ARR2 C-terminal 12 aa], the protein stability index by setting is: under setting [1], 0.6753 ± 0.002; (genetic background: wild type) 0.712 ± 0.016.

For the sequence CSGMKPISELQQ [RSM28 C-terminal 12 aa], the protein stability index came to 0.695 ± 0.015 under setting [1] and 0.682 ± 0.017 (genetic background: wild type).

Consider CSPVLFSLLNIA [LCB3 C-terminal 12 aa], for which the protein stability index by setting is: under setting [1], 0.699 ± 0.012; (genetic background: wild type) 0.674 ± 0.087.

Take DAKFMMQASCSS [FMP40 C-terminal 12 aa]: the protein stability index was determined as 0.6897 ± 0.0051 under setting [1] and 0.682 ± 0.035 (genetic background: wild type).

Turning to DASVEQNILAVL [RQT4 C-terminal 12 aa], the protein stability index is, setting by setting: under setting [1], 0.70427 ± 0.00032; (genetic background: wild type) 0.6904 ± 0.0037.

DAVAEEVKKILA [LEU2 C-terminal 12 aa]: the protein stability index came out at 0.689 ± 0.018 under setting [1] and 0.68 ± 0.0084 (genetic background: wild type).

As for DCLEGMLELEKL [DSS1 C-terminal 12 aa], the protein stability index reads like this: under setting [1], 0.698 ± 0.025; (genetic background: wild type) 0.677 ± 0.041.

In turn, DDDNEDVEMSDA [NOC2 C-terminal 12 aa] had a protein stability index under setting [1] of 0.66818 ± 0.00066 and a protein stability index (genetic background: wild type) of 0.693 ± 0.057.

Take DDEDEEDDDFKE [CHZ1 C-terminal 12 aa]: the protein stability index was 0.725 ± 0.021 under setting [1] and 0.671 ± 0.017 (genetic background: wild type).

As for DDYAQYLDQDSD [MAK21 C-terminal 12 aa], the protein stability index came out at 0.7147 ± 0.004 under setting [1] and 0.671 ± 0.011 (genetic background: wild type).

In the case of DEDEDDSTTKEP [GLC8 C-terminal 12 aa], the protein stability index reads like this: under setting [1], 0.679 ± 0.011; (genetic background: wild type) 0.7 ± 0.026.

As for DEDLWEEQEVCP [YGR017W C-terminal 12 aa], the protein stability index runs as follows: under setting [1], 0.702 ± 0.0037; (genetic background: wild type) 0.709 ± 0.011.
